Key:
[1] = biological target: Est22 (wild type) (bacterial, deep-sea sediment metagenomic library); assay: SEC; gel filtration profiles of wild type and mutants, Superdex 200 16/600 (panel C); column of panel E not given
[2] = biological target: Est22 (wild type) (bacterial, deep-sea sediment metagenomic library); assay: SEC-MALS; 20 ul of 1 mg/ml Est22 on a wtc030s5 column (Wyatt), 20 mM Tris-HCl, 100 mM NaCl, pH 7.4
[3] = biological target: Est22 S188A (bacterial, deep-sea sediment metagenomic library); assay: SEC; gel filtration profiles of wild type and mutants, Superdex 200 16/600 (panel C); column of panel E not given
[4] = biological target: Est22 S188A/D287A (bacterial, deep-sea sediment metagenomic library); assay: as above
[5] = biological target: Est22 S188A/H317A (bacterial, deep-sea sediment metagenomic library); assay: as above
purified protein = substrate: CC(=O)Oc1ccc([N+](=O)[O-])cc1; assay: purified protein; format: biochemical, uncultured bacterium; details: 100 mM Tris-HCl, pH 7.5, 40 °C
[6] = biological target: the molecule itself; assay: SEC; gel filtration profiles of wild type and mutants, Superdex 200 16/600 (panel C); column of panel E not given

For Est22 (wild type) (enzyme), which stoichiometry N [1] is on record?
Its stoichiometry N is 2.

And the stoichiometry N [2]?
The stoichiometry N was 2.

Est22 S188A (enzyme) was tested. Which stoichiometry N [3] did it give?
Its stoichiometry N is 2.

Which stoichiometry N [4] does the source give for Est22 S188A/D287A (enzyme) here?
Its stoichiometry N is 2.

For Est22 S188A/H317A (enzyme), which stoichiometry N [5] is on record?
Its stoichiometry N is 2.

B1: Est22 (uncultured bacterium) (protein)
chain: MTNKIAEDPRIDPRIKAIFSGMDLGGGGDVESREAMLEAASSEEATAVRDGLRVFLDACDNEEIAPSAGLKIEDYEFTSEPDGNIAKIQYIRPDSTDKLPCVYYIHGGGMQSLSCYYGNYRAWGKIIASNGVAVAMVEFRNALVPSALPEVAPYPAGLNDCVSGVKWVASHADELGIDASRIIIAGESGGGNLTLAAGLRLKQEGSQDLIQGLYALCPYIAGSWPSEDSPSSTENNGILLDLHNNQGAMGYGIEAYEMRDPLAWPGFATEEDVSGLVPTFISVNECDPLRDEGINFYRLLLRAGVSAKCRQVMGTIHGTEIFPIACPDVSRDTAASIANFCKGG
notes: full length 1-344 aa, N-terminal 6xHis tag (pET28b), E. coli Rosetta (DE3)
For B1, which Km (purified protein) is on record?
Its Km is 489.9 µM.

And the kcat (purified protein)?
Its kcat is 3160 s⁻¹.

B2: Est22 S170A (enzyme)
chain: MGSSHHHHHHHSSGLVPRGSHMTNKIAEDPRIDPRIKAIFSGMDLGGGGDVESREAMLEAASSEEATAVRDGLRVFLDACDNEEIAPSAGLKIEDYEFTSEPDGNIAKIQYIRPDSTDKLPCVYYIHGGGMQSLSCYYGNYRAWGKIIASNGVAVAMVEFRNALVPSALPEVAPYPAGLNDCVSGVKWVAAHADELGIDASRIIIAGESGGGNLTLAAGLRLKQEGSQDLIQGLYALCPYIAGSWPSEDSPSSTENNGILLDLHNNQGAMGYGIEAYEMRDPLAWPGFATEEDVSGLVPTFISVNECDPLRDEGINFYRLLLRAGVSAKCRQVMGTIHGTEIFPIACPDVSRDTAASIANFCKGG
With B2 as the molecule, how does the “stoichiometry N” value [6] read?
Its value is 2.

From paper PMC4916508, “Structural insights of a hormone sensitive lipase homologue Est22” (Scientific Reports, 2016)
